For three molecules, interaction score results are on record in PMC10397247.

Common to all, as to test: two-hybrid library CCmax;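 note: natural log of median RNA to DNA barcode read ratio; higher means stronger binding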
Test [1] deals with T1, 4H87-AA.
T1 chain: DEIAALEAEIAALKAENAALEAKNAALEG
The conditions noted are these: mean of both orientations.

For test [2], the target named is T2, 4H816-AA.
T2 chain: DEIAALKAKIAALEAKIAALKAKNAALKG
The conditions noted are these: mean of both orientations.

In test [3] the target is T3, 4H2985-AA.
T3 chain: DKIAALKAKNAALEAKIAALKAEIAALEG
The following applies: mean of both orientations.

The target of test [4] is T4, 4H775-AA.
T4 chain: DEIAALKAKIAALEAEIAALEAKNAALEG
The conditions noted are these: mean of both orientations.

Test [5] deals with T5, 4H510-AA.
T5 chain: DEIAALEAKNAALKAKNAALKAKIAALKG
The following applies: mean of both orientations.

Test [6] addresses T6, 4H2873-AA.
T6 chain: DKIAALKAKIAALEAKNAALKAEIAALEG

For test [7], the target named is T7, 4H3940-AA.
T7 chain: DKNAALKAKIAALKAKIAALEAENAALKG
The conditions noted are these: mean of both orientations.

The target in test [8] is T8, 4H3409-AA.
T8 chain: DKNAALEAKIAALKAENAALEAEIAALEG
The following applies: mean of both orientations.

Test [9] has as its target T9, 4H3134-AA.
T9 chain: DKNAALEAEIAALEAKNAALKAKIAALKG
The conditions noted are these: mean of both orientations.

For test [10], the target named is T10, 4H390-AA.
T10 chain: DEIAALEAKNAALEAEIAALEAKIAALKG
The following applies: mean of both orientations.

The target of test [11] is T11, 4H3625-AA.
T11 chain: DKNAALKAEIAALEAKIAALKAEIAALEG
The conditions noted are these: mean of both orientations.

Test [12] deals with T12, P10-AA.
T12 chain: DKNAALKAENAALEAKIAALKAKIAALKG
The conditions noted are these: mean of both orientations.

The target in test [13] is T13, P9-AA.
T13 chain: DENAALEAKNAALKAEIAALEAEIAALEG
The conditions noted are these: mean of both orientations.

The target in test [14] is T14, O8-AA.
T14 chain: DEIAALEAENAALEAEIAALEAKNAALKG

Test [15] concerns the target T15, 4H2617-AA.
T15 chain: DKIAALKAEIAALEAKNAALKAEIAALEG
The conditions noted are these: mean of both orientations.

The target of test [16] is T16, 4H2949-AA.
T16 chain: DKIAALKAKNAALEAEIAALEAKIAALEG
The conditions noted are these: mean of both orientations.

Test [17] concerns the target T17, 4H317-AA.
T17 chain: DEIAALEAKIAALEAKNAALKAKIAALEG
The following applies: mean of both orientations.

The target of test [18] is T18, 4H566-AA.
T18 chain: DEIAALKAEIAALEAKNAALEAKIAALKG
The following applies: mean of both orientations.

Test [19] addresses T19, 4H3921-AA.
T19 chain: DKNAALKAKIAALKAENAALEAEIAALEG
The following applies: mean of both orientations.

Test [20] addresses T20, 4H3655-AA.
T20 chain: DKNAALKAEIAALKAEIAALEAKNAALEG
The following applies: mean of both orientations.

Test [21] concerns the target T21, 4H2505-AA.
T21 chain: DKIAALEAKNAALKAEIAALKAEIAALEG
The following applies: mean of both orientations.

Test [22] concerns the target T22, 4H2837-AA.
T22 chain: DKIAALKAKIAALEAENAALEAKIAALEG
The conditions noted are these: mean of both orientations.

Test [23] addresses T23, 4H2466-AA.
T23 chain: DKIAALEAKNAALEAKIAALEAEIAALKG
The conditions noted are these: mean of both orientations.

In test [24] the target is T24, 4H678-AA.
T24 chain: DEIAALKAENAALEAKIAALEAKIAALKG
The conditions noted are these: mean of both orientations.

Test [25] addresses T25, 4H2354-AA.
T25 chain: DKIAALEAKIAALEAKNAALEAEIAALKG
The following applies: mean of both orientations.

Test [26] has as its target T26, 4H993-AA.
T26 chain: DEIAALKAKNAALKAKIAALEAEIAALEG
The conditions noted are these: mean of both orientations.

The target in test [27] is T27, 4H2729-AA.
T27 chain: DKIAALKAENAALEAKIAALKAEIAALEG
The conditions noted are these: mean of both orientations.

Test [28] deals with T28, 4H342-AA.
T28 chain: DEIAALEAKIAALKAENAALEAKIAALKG
The following applies: mean of both orientations.

In test [29] the target is T29, 4H3343-AA.
T29 chain: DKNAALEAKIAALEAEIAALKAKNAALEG
The following applies: mean of both orientations.

Test [30] addresses T30, 4H605-AA.
T30 chain: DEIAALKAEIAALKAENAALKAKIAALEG
The conditions noted are these: mean of both orientations.

Test [31] deals with T31, 4H780-AA.
T31 chain: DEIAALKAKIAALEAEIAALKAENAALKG
The conditions noted are these: mean of both orientations.

Test [32] concerns the target T32, 4H234-AA.
T32 chain: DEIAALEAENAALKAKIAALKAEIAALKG
The following applies: mean of both orientations.

Test [33] has as its target T33, 4H48-AA.
T33 chain: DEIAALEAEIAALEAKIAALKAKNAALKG
The following applies: mean of both orientations.

Test [34] addresses T34, 4H3112-AA.
T34 chain: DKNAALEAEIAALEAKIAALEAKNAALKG
The conditions noted are these: mean of both orientations.

In test [35] the target is T35, 4H429-AA.
T35 chain: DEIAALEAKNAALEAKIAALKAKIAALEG
The following applies: mean of both orientations.

The target of test [36] is T36, 4H3427-AA.
T36 chain: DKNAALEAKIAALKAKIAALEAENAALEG
The conditions noted are these: mean of both orientations.

Test [37] concerns the target T37, 4H454-AA.
T37 chain: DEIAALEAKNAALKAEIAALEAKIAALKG
The following applies: mean of both orientations.

The target of test [38] is T38, 4H2190-AA.
T38 chain: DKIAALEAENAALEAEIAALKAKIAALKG

The target in test [39] is T39, 4H2754-AA.
T39 chain: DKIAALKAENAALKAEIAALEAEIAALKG
The following applies: mean of both orientations.

Test [40] has as its target T40, 4H794-AA.
T40 chain: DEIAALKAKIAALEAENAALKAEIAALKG
The following applies: mean of both orientations.

Test [41] has as its target T41, 4H3606-AA.
T41 chain: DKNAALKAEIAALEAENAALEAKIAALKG
The conditions noted are these: mean of both orientations.

Test [42] concerns the target T42, 4H2642-AA.
T42 chain: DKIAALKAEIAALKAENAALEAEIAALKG
The conditions noted are these: mean of both orientations.

The target in test [43] is T43, 4H2393-AA.
T43 chain: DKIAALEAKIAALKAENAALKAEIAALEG
The following applies: mean of both orientations.

Test [44] deals with T44, 4H2944-AA.
T44 chain: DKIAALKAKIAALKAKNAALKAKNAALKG
The conditions noted are these: mean of both orientations.

For test [45], the target named is T45, 4H881-AA.
T45 chain: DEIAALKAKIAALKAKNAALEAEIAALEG
The conditions noted are these: mean of both orientations.

Test [46] has as its target T46, 4H717-AA.
T46 chain: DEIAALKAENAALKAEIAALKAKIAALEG
The following applies: mean of both orientations.

The target in test [47] is T47, 4H3844-AA.
T47 chain: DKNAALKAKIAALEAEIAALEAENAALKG
The following applies: mean of both orientations.

The target of test [48] is T48, 4H335-AA.
T48 chain: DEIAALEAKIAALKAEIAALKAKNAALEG
The following applies: mean of both orientations.

Test [49] deals with T49, 4H2883-AA.
T49 chain: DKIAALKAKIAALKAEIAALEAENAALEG
The following applies: mean of both orientations.

The target of test [50] is T50, 4H2575-AA.
T50 chain: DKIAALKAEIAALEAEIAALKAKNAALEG
The following applies: mean of both orientations.

For test [51], the target named is T51, 4H906-AA.
T51 chain: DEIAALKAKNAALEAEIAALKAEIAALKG
The conditions noted are these: mean of both orientations.

Test [52] has as its target T52, 4H2277-AA.
T52 chain: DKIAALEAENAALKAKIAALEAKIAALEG
The following applies: mean of both orientations.

Test [53] concerns the target T53, 4H3627-AA.
T53 chain: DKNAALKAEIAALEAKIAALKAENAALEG
The conditions noted are these: mean of both orientations.

B1: 4H2873-AA (peptide)
chain: DKIAALKAKIAALEAKNAALKAEIAALEG
Consider B1, for which the interaction score in [1] is 0.464; in [2] it was -0.999; in test [3], 2.29; in test [4] it was -0.187; in test [5], -0.174; in test [6] it was 0.429. Moreover, the interaction score is -1.33 in [7]; 0.324 in test [8]; 1.06 in [9]; 2.21 in test [10]; 1.8 in test [11].

B2: O8-AA (peptide)
chain: DEIAALEAENAALEAEIAALEAKNAALKG
Regarding B2, the interaction score was -0.856 in test [12], -1.26 in test [13] and -1.16 in test [14].

B3: 4H2190-AA (peptide)
chain: DKIAALEAENAALEAEIAALKAKIAALKG
For B3, the interaction score in [15] was 0.788; in test [16], 2.07; in [17] it was 2.09; in test [18], 0.26; in [19] it was -1.21; in test [20], 1.73. Also, the interaction score in test [21] is 2.21; in test [22], -1.55; in [23], 0.489; in test [24], -0.81; in [25], -0.303; in test [26] it was 2.17. Moreover, the interaction score in [27] is 2.26; in test [28], 0.437; in test [29] it was -1.32; in test [30], -1.55; in test [31], -1.55; in test [32], 1.66. The interaction score is -0.0631 in test [33]; -0.916 in [34]; 1.95 in [35]; -1.15 in test [36]; 1.72 in test [37]; 2.19 in [38]. The interaction score was 2.3 in test [39]; -0.883 in test [40]; -0.529 in test [41]; -0.738 in test [42]; 0.996 in [43]; -1.51 in [44]. Besides, the interaction score in [45] was 0.176; in test [46] it was 1.16; in test [47], 0.147; in [48], 0.22; in [49], 0.596; in [50] it was -0.718. Further, the interaction score in test [51] was 1.04; in test [52], 1.06; in test [53], -0.558.
